Test results as given in patent US20240425606A1, “ANTI-IL-11RA ANTIBODIES” (Lassen Therapeutics 1, Inc., priority 2021, published 2024).
Substitutions are numbered along the chain they refer to. Names may count otherwise.

T1: hIL-11Rα (Homo sapiens, UniProt Q14626)
T1 sequence (Q14626 23-422): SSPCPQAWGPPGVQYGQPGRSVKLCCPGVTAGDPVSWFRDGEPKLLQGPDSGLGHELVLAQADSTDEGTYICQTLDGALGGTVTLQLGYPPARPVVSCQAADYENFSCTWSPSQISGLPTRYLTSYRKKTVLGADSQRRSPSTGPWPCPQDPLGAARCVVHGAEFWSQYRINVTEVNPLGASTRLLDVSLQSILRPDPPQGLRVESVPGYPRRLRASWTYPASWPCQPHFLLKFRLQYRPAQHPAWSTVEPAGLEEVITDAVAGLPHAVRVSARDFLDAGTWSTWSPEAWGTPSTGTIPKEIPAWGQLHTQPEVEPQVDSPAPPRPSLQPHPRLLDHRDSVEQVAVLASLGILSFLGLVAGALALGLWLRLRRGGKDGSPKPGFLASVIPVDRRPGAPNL

B1: mAb6: anti-IL-11Rα antibody; VH SEQ ID NO: 203, VL SEQ ID NO: 204; human IgG4 (S228P), kappa light chain (antibody, V domains shown)
VH: EVQLLESGGGLVQPGGSLRLSCAASGFTFSWYSMTWVRQAPGKGLEWVSSIVPYGDLTQYADSVKGRFTISRDNSKNTLYLQMNSLRAEDTAVYYCAKGPGWGSFDLWGRGTLVTVSS
VL: DIQMTQSPSSLSASVGDRVTITCQASQDINNYLNWYQQKPGKAPKLLIYDASNLQTGVPSRFSGSGSGTDFTFTISSLQPEDIATYYCQQHEFQSPTFGPGTKVDIK
modifications: human IgG4 S228P and kappa constant regions; mAb6 VH Chain; mAb6 VL Chain
notes: anti-IL-11Rα antibody; human IgG4 (S228P), kappa light chain
B2: mAb14: anti-IL-11Rα antibody; VH SEQ ID NO: 219, VL SEQ ID NO: 220; human IgG4 (S228P), kappa light chain (antibody, V domains shown)
VH: B1 VH with D62E
VL: B1 VL with F93S
modifications: human IgG4 S228P and kappa constant regions; mAb14 VH Chain; mAb14 VL Chain
notes: as for B1
B3: mAb11: anti-IL-11Rα antibody; VH SEQ ID NO: 213, VL SEQ ID NO: 214; human IgG4 (S228P), kappa light chain (antibody, V domains shown)
VH: B1 VH with P53D
VL: B1 VL with F93S
modifications: human IgG4 S228P and kappa constant regions; mAb11 VH Chain; mAb11 VL Chain
notes: as for B1
B4: mAb8: anti-IL-11Rα antibody; VH SEQ ID NO: 207, VL SEQ ID NO: 208; human IgG4 (S228P), kappa light chain (antibody, V domains shown)
VH: B1 VH with W31S, S33A, T35S
VL: B1 VL with F93S
modifications: human IgG4 and kappa constant regions; mAb8 VH Chain; mAb8 VL Chain
notes: as for B1
B5: mAb10: anti-IL-11Rα antibody; VH SEQ ID NO: 211, VL SEQ ID NO: 212; human IgG4 (S228P), kappa light chain (antibody, V domains shown)
VH: B1 VH with P53A
VL: B1 VL with F93S
modifications: human IgG4 S228P and kappa constant regions; mAb10 VH Chain; mAb10 VL Chain
notes: as for B1
B6: mAb7: anti-IL-11Rα antibody; VH SEQ ID NO: 205, VL SEQ ID NO: 206; human IgG4 (S228P), kappa light chain (antibody, V domains shown)
VH: B1 VH with W31N, S33A, T35S
VL: B1 VL with F93S
modifications: human IgG4 S228P and kappa constant regions; mAb7 VH Chain; mAb7 VL Chain
notes: as for B1
B7: mAb12: anti-IL-11Rα antibody; VH SEQ ID NO: 215, VL SEQ ID NO: 216; human IgG4 (S228P), kappa light chain (antibody, V domains shown)
VH: B1 VH with G103Y
VL: B1 VL with F93S
modifications: human IgG4 S228P and kappa constant regions; mAb12 VH Chain; mAb12 VL Chain
notes: as for B1
B8: mAb15: anti-IL-11Rα antibody; VH SEQ ID NO: 221, VL SEQ ID NO: 222; human IgG4 (S228P), kappa light chain (antibody, V domains shown)
VH: B1 VH
VL: B1 VL with F93T, S95T
modifications: human IgG4 S228P and kappa constant regions; mAb15 VH Chain; mAb15 VL Chain
notes: as for B1
B9: mAb9: anti-IL-11Rα antibody; VH SEQ ID NO: 209, VL SEQ ID NO: 210; human IgG4 (S228P), kappa light chain (antibody, V domains shown)
VH: B1 VH with S50G
VL: B1 VL with F93S
modifications: human IgG4 and kappa constant regions; mAb9 VH Chain; mAb9 VL Chain
notes: as for B1
B10: mAb13: anti-IL-11Rα antibody; VH SEQ ID NO: 217, VL SEQ ID NO: 218; human IgG4 (S228P), kappa light chain (antibody, V domains shown)
VH: B1 VH with G99P, P100E, G101D, S104R
VL: B1 VL with F93S
modifications: human IgG4 S228P and kappa constant regions; mAb13 VH Chain; mAb13 VL Chain
notes: as for B1

System: IL-11 signaling in STAT3 Reporter (Luciferase)—HEK293 cell line
Assay: Cell-based STAT3 reporter (luciferase) assay for inhibiting IL-11 signaling
Set-up: species or system human
Conditions: compared with TS7 and 8E2
Protocol: Further testing of the lead mAbs was carried out using a cell-based reporter assay. IL-11 is reported to signal through the STAT3 and ERK pathways. Therefore, a STAT3 reporter cell line in which firefly luciferase gene expression is driven by STAT3 response elements located upstream of a minimal TATA promoter was selected to analyze mAb functional activity. In these cells, IL-11 can activate the endogenous STAT3 allowing it to bind to the STAT3 response elements, inducing transcription of the luciferase reporter gene and resulting in readily detectable luciferase expression. Antibodies to IL-11R which block IL-11 signaling should inhibit expression of IL-11 driven luciferase in these cells.
The STAT3 Reporter (Luciferase)—HEK293 cell line (BPS Bioscience, catalog #79800-P) was grown, passaged, and assayed as per manufacturer's protocols. Cells were added at 25,000 cells per well in a 96-well microtiter dish and incubated at 37° C. for 30-45 min. in 5% CO2 humidified air. Anti-IL-11R mAbs were added as a 3-fold dilution series in duplicate columns or rows, and plates were returned to the incubator for an additional 1 h at 37° C. after which 40 ng/mL IL-11 was added to each well to initiate the signal transduction cascade and luciferase production. Plates were incubated for 18-24 hours at 37° C. and luciferase was detected using a One-Step Luciferase Assay System (BPS Bioscience, cat. no. 60690-1) as per manufacturer's instructions.

Molecule | relative potency at inhibiting IL-11 signaling (in words)
B1 | variable
B2 | comparable in potency to TS7
B3 | less potent than TS7
B4 | less potent than TS7
B5 | less potent than TS7
B6 | less potent than TS7
B7 | comparable in potency to TS7
B8 | comparable in potency to TS7
B9 | more potent at inhibiting IL-11 signaling than either of TS7 or 8E2
B10 | more potent at inhibiting IL-11 signaling than either of TS7 or 8E2

Biological target: T1, hIL-11Rα
Assay: Kinetic binding analysis by biolayer interferometry (protein G biosensors, Octet RED96e)
Conditions: beyond the ability of the instrument to determine an accurate off-rate (kd)
Protocol: Association was carried out in the presence of a 2-fold dilution series of hIL-11Rα and was allowed to proceed for 120 seconds; dissociation was measured for 300 to 1200 seconds.

binding affinity (in words) | Molecule
very high binding affinity | B1
very high binding affinity | B2
very high binding affinity | B4
very high binding affinity | B6
very high binding affinity | B7
very high binding affinity | B8
very high binding affinity | B9
very high binding affinity | B10

Same assay, conditions: protein G biosensors; association 120 seconds

ka | Molecule
800000 M⁻¹ s⁻¹ | B1
33700 M⁻¹ s⁻¹ | B2
32900 M⁻¹ s⁻¹ | B3
65100 M⁻¹ s⁻¹ | B4
840000 M⁻¹ s⁻¹ | B5
63500 M⁻¹ s⁻¹ | B6
58100 M⁻¹ s⁻¹ | B7
84000 M⁻¹ s⁻¹ | B8
62200 M⁻¹ s⁻¹ | B9
66700 M⁻¹ s⁻¹ | B10

Same assay, conditions: protein G biosensors; dissociation 300 to 1200 seconds

kd | Molecule
<1e-07 s⁻¹ | B1
<1e-07 s⁻¹ | B2
0.0181 s⁻¹ | B3
<1e-07 s⁻¹ | B4
0.000416 s⁻¹ | B5
<1e-07 s⁻¹ | B6
<1e-07 s⁻¹ | B7
<1e-07 s⁻¹ | B8
<1e-07 s⁻¹ | B9
<1e-07 s⁻¹ | B10
